Key:
T4L-L99A [1] = biological target: T4L-L99A (UniProt P00720); assay: ITC, KD1 (high affinity mode), T = 37° C. and pH = 7.2
T4L-L99A [2] = biological target: T4L-L99A (UniProt P00720); assay: BSI steady-state, KD2 (low affinity mode), T = 37° C. and pH = 7.2
T4L-L99A-A130S [3] = biological target: T4L-L99A-A130S (UniProt P00720); assay: BSI, global analysis of kinetic traces
T4L-L99A-A130S [4] = biological target: T4L-L99A-A130S (UniProt P00720); assay: BSI, global analysis, KD2 (low affinity mode), 25° C., pH 8.0
T4L-D70N [5] = biological target: T4L-D70N (UniProt P00720); assay: as above
T4L-L99A-A130S [6] = biological target: T4L-L99A-A130S (UniProt P00720); assay: BSI, global analysis, row printed kr1 but read as kr2 (low affinity mode), 25° C., pH 8.0
T4L-D70N [7] = biological target: T4L-D70N (UniProt P00720); assay: as above
T4L-L99A-A130S [8] = biological target: T4L-L99A-A130S (UniProt P00720); assay: BSI, global analysis, kf2 (low affinity mode), 25° C., pH 8.0
T4L-D70N [9] = biological target: T4L-D70N (UniProt P00720); assay: as above
T4L-L99A [10] = biological target: T4L-L99A (UniProt P00720); assay: BSI steady-state, KD1 (high affinity mode), T = 37° C. and pH = 7.2
T4L-L99A-A130S [11] = biological target: T4L-L99A-A130S (UniProt P00720); assay: BSI, global analysis, KD1 (high affinity mode), 25° C., pH 8.0
T4L-D70N [12] = biological target: T4L-D70N (UniProt P00720); assay: as above
T4L-D70N [13] = biological target: T4L-D70N (UniProt P00720); assay: BSI corrected steady-state data, 25° C., pH 8.0
T4L-L99A [14] = biological target: T4L-L99A (UniProt P00720); assay: Fluorescence, KD1 (high affinity mode), T = 37° C. and pH = 7.2
T4L-L99A-A130S [15] = biological target: T4L-L99A-A130S (UniProt P00720); assay: BSI, global analysis, kf1 (high affinity mode), 25° C., pH 8.0
T4L-D70N [16] = biological target: T4L-D70N (UniProt P00720); assay: as above
T4L-L99A-A130S [17] = biological target: T4L-L99A-A130S (UniProt P00720); assay: BSI, global analysis, kr1 (high affinity mode), 25° C., pH 8.0
T4L-D70N [18] = biological target: T4L-D70N (UniProt P00720); assay: as above
T4L-L99A [19] = biological target: T4L-L99A (UniProt P00720); assay: ITC, KD2 (low affinity mode), T = 37° C. and pH = 7.2
T4L-L99A [20] = biological target: T4L-L99A (UniProt P00720); assay: Fluorescence, KD2 (low affinity mode), T = 37° C. and pH = 7.2

Sequence of αB-D3 (αB-crystallin with serine residues 19, 45 and 59 mutated to aspartic acids) (P02511 other isoform, or with tags, fused parts or gaps limits assumed, change not shown): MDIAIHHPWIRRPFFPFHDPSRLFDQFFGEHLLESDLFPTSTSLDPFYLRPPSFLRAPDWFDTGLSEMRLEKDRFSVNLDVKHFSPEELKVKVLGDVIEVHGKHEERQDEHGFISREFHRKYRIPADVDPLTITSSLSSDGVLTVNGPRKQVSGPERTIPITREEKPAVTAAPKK

Kd (T4L-L99A [1]): 0.015 µM
Kd (T4L-L99A [2]): 3.11 µM
fold increase of affinity in the high affinity mode relative to D70N (T4L-L99A-A130S [3]): 4 fold
Kd (T4L-L99A-A130S [4]): 33 µM
Kd (T4L-D70N [5]): 29.1 µM
koff (T4L-L99A-A130S [6]): 0.115 s⁻¹
koff (T4L-D70N [7]): 0.0682 s⁻¹
kon (T4L-L99A-A130S [8]): 2970 M⁻¹ s⁻¹
kon (T4L-D70N [9]): 2340 M⁻¹ s⁻¹
Kd (T4L-L99A [10]): 0.001 µM
Kd (T4L-L99A-A130S [11]): 0.132 µM
Kd (T4L-D70N [12]): 0.595 µM
reduction in the magnitude of the BSI signal relative to L99A/A130S (T4L-D70N [13]): 40%
Kd (T4L-L99A [14]): 0.02 µM
kon (T4L-L99A-A130S [15]): 58500 M⁻¹ s⁻¹
kon (T4L-D70N [16]): 25500 M⁻¹ s⁻¹
koff (T4L-L99A-A130S [17]): 5.03e-06 s⁻¹
koff (T4L-D70N [18]): 0.0152 s⁻¹
Kd (T4L-L99A [19]): 2.44 µM
Kd (T4L-L99A [20]): 1 µM
Substance: αB-D3 (αB-crystallin with serine residues 19, 45 and 59 mutated to aspartic acids) (from UniProt P02511 1-175)

Reference: US20180120302A1
